Source: paper PMC7014002, “Identification and Characterization of a β-N-Acetylhexosaminidase with a Biosynthetic Activity from the Marine Bacterium Paraglaciecola hydrolytica S66^T” (International Journal of Molecular Sciences, 2020)

T1: SpHex (Streptomyces plicatus, UniProt O85361)
T1 construct: gene hex
T1 sequence (O85361 1-506): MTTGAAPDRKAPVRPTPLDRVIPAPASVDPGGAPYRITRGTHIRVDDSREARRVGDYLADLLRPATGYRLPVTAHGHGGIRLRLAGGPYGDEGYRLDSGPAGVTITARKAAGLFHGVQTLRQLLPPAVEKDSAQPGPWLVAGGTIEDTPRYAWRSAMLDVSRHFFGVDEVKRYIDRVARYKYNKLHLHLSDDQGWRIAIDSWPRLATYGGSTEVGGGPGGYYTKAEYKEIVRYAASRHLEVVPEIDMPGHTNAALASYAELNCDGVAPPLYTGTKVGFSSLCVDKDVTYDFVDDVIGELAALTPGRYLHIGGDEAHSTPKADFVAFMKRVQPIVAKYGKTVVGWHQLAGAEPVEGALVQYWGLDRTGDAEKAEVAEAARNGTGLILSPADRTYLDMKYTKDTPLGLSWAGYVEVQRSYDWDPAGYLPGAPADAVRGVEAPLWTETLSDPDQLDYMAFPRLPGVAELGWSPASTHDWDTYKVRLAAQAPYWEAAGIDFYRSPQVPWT

B1: PhNah20A (Paraglaciecola hydrolytica) (protein)
chain: MYKIIIAGLGLLWSITSHGMQPLNLMPYPSEVQQQAGHFTLPSQLKVFTQHVSEARCELIKEQLEQLQQVEVLWVTAKDQANLLVEVEGVTQVMEVGGKSGELIPTLHDNEQYHLSVSPRLITLKAQTERGMLHGVQTLLQLVNRTQRSIPAVDIDDKPRFAWRGLLIDSVRHFMPVDTIKRQLRGMASAKLNVLHWHLTDDQGWRIASKAYPKLQLLASDGLFYTQQQIREVVQYAALLGIRVVPEFDVPGHASAIAVAYPELITQPGPYTMQRHWGVFEPLLDPSNPQVYQFIETIISELAELFPDVYVHIGGDEIEPTQWQQSQAVQHYMQQHQLADEHQLHAYFNQQVQQILSKYGKQMMGWDEVFATDLPKDIVVQSWRGLDSLQHIASSDYQVLLSTGYYVDQPQEAAYHYRNDPFTSFKQPSFKTQDIKHWQHWQFTMPRLKGSAVSGEFVLLSSEAGKQVLLRFNNQQARLINELEPRANLQRFTVDSWMGPSQFELDLSKDVIQQGRILIGNTPYSVSGNRLAQSTGSKALPAMLQDFVAASKVPTDLPKLHKNILGGEAAIWSEIVRADNLDLRLWPRLYAIAERLWSPATLTDEDAMYRRLTVMQTYASEVIGLEFTQQQRAGFKQLTSQDADIEPLIILAEAVEQAQYYTRHHSKFQHDNYHQLVELNQYVDYLSAQSLGLVELKRHIELFQQGDQQAKKFIEQLLQKWQKNLPKLKLLIANYPKLHSLAPLVTTLSQVVDIGQKLVAQCAKGEPLKPEHQRDVQQQLWQAAQLQQEMVVSSALAIEALAFKCRA

Experiments:
SpHex = molecular target: T1, SpHex; assay: transglycosylation time course, TLC; assay type: biochemical; settings: donor 100 mM; acceptor 200 mM lactose; 50 mM sodium phosphate pH 8.0, 0.5% BSA, 37 °C
purified protein [1] = substrate: CC(=O)N[C@H]1[C@H](Oc2ccc([N+](=O)[O-])cc2)O[C@H](CO)[C@H](O)[C@@H]1O; assay: purified protein; assay type: biochemical, Paraglaciecola hydrolytica; settings: two-fold diluted McIlvaine buffer pH 6.0, 0.05% BSA, 37 °C
purified protein [2] = substrate: CC(=O)N[C@H]1[C@H](Oc2ccc([N+](=O)[O-])cc2)O[C@H](CO)[C@@H](O)[C@@H]1O; assay: purified protein; assay type: biochemical, Paraglaciecola hydrolytica; settings: two-fold diluted McIlvaine buffer pH 6.0, 0.05% BSA, 37 °C

| Molecule | transglycosylation time course, TLC (SpHex) | Km (purified protein [1]) | kcat (purified protein [1]) | kcat/Km (purified protein [1]) | Km (purified protein [2]) | kcat (purified protein [2]) | kcat/Km (purified protein [2]) |
| --- | --- | --- | --- | --- | --- | --- | --- |
| CC1=N[C@H]2[C@@H](O1)O[C@H](CO)[C@@H](O)[C@@H]2O [NAG-oxazoline, 2-methyl-(1,2-dideoxy-α-D-glucopyrano)-oxazoline] | We here also demonstrated transglycosylation by the commercial GH20 N-acetylglucosaminidase from S. plicatus (SpHex) |  |  |  |  |  |  |
| B1 |  | 560 ± 110 µM | 193 s⁻¹ | 344000 M⁻¹ s⁻¹ | 430 ± 70 µM | 147 s⁻¹ | 341000 M⁻¹ s⁻¹ |
